Several values for one entry are separate records, joined by “and”; a condition that tells them apart may be missing. Identical values can stand only once.
Key:
ErbB4 = target: T1, ErbB4 (Rattus norvegicus, UniProt Q62956); assay: In vitro phosphorylation of Akt in neonatal rat cardiomyocytes; format: cell-based; conditions: for EC50: Akt (Serine 473) phosphorylation, neonatal rat cardiomyocytes, 15 minutes treatment, read-out: Cardiomyocyte (CM) (ErbB4) Avg EC50; for Selectivity SC/CM: ratio of EC50s Schwann cells/cardiomyocytes; for CM % Agonism AVG: top value of the Akt phosphorylation data points in cardiomyocytes, wild-type control 100
T1 construct: forming the ErbB2/ErbB4 complex in cardiomyocytes and the ErbB2/ErbB3 complex in Schwann cells; endogenous in cells; host or cells: primary neonatal rat cardiomyocytes (Sprague Dawley pups, 0 to 4 days old)
Method: (§1) In Vitro Phosphorylation of Akt in Neonatal Rat Cardiomyocytes and Rat Schwann Cells by Neuregulin Variants
(§2) Specificity of neuregulin variants towards cardiomyocytes (ErbB4) versus Schwann cells (ErbB3) was tested by measuring Akt activity generated by formation of the ErbB2/ErbB4 and ErbB2/ErbB3 complexes. Upon activation by neuregulin, the ErbB4 and ErbB3 receptors dimerize preferentially with the ErbB2 co-receptor, forming the ErbB2/ErbB4 complex in cardiomyocytes and the ErbB2/ErbB3 complex in Schwann cells, both of which signal through the Akt pathway. Neonatal rat cardiomyocytes were isolated from hearts of Sprague Dawley rat pups at 0 to 4 days old according to manufacturer's protocol using the Neomyt kit and plated on Surecoat plates in NS media containing serum (all from Cellultron Life Technologies, Baltimore, MD). Rat Schwann cells were plated in Poly-D-Lysine coated plates with Dulbecco's modified Eagle's media (DMEM) supplemented with fetal bovine serum (Thermo Fisher) and forskolin (Millipore Sigma).
(§3) After a 24-hour incubation in a humidified incubator maintained at 37° C. and 5% CO2, cardiomyocytes and Schwann cells were washed with serum free media and incubated an additional 16 hours in DMEM supplemented with bovine serum albumin (Sigma). Both cell lines were then treated with titrations of the neuregulin variant molecules for 15 minutes, upon which cells were lysed in lysis buffer (Meso Scale Discovery (MSD)). For detection of Akt phosphorylation, lysates were added to the Multi-Spot 96-Well 4-Spot Phospho (Serine 473)/Total Akt plates (MSD), incubated according to the manufacturer's protocol and read in the SECTOR Imager 6000 (MSD). For both cell assays, the percent phosphorylation of Akt was calculated by multiplying the phospho Akt signal by 2, then dividing by the phospho Akt signal added to the total Akt signal and then multiplying by 100. The phosphorylation of Akt data points were fitted using a log (agonist) versus response, variable slope (4 parameters) analysis in GraphPad Prism to generate EC50 curves. The CM % agonism reflect the top value of the data points.

ErbB3 = target: T2, ErbB3 (Rattus norvegicus, UniProt Q62799); assay: In vitro phosphorylation of Akt in rat Schwann cells; format: cell-based; conditions: Akt (Serine 473) phosphorylation, 15 minutes treatment
T2 construct: forming the ErbB2/ErbB4 complex in cardiomyocytes and the ErbB2/ErbB3 complex in Schwann cells; endogenous in cells; host or cells: rat Schwann cells
Method: as §1, §2, §3

T2 sequence (Q62799 20-1339): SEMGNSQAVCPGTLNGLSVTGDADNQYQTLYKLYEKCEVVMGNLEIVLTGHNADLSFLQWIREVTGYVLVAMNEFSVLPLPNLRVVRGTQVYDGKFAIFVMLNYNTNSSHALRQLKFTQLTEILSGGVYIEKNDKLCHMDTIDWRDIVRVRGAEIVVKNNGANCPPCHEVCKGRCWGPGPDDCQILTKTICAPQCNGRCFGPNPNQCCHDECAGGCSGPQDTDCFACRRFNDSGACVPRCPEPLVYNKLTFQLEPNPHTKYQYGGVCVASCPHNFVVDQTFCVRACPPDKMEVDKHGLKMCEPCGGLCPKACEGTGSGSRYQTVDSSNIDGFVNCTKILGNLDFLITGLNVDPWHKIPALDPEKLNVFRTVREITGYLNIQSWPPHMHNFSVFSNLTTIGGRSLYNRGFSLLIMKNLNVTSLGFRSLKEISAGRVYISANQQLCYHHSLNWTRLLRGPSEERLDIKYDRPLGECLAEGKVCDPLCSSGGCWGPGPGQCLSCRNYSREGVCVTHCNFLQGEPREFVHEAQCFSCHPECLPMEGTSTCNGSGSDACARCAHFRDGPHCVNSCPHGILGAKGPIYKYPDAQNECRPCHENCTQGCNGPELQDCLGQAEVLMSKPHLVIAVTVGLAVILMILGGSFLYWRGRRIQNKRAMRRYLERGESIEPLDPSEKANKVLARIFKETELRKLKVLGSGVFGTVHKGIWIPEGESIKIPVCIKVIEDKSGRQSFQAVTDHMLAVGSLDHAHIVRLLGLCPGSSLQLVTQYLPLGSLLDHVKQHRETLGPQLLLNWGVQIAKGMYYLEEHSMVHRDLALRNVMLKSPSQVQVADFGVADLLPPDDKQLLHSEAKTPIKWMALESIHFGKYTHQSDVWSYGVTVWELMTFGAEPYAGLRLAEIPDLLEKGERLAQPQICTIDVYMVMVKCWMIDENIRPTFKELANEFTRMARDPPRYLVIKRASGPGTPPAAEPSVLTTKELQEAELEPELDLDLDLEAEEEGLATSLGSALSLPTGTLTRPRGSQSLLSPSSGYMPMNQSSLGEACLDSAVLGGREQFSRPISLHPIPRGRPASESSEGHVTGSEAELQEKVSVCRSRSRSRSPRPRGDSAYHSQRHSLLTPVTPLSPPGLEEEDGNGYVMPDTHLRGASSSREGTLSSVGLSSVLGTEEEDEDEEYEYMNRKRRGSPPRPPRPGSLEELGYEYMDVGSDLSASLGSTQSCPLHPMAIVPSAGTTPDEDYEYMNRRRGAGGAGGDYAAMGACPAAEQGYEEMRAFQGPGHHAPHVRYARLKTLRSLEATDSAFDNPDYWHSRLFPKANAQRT
T2 sequence (P06494 23-1257 partner): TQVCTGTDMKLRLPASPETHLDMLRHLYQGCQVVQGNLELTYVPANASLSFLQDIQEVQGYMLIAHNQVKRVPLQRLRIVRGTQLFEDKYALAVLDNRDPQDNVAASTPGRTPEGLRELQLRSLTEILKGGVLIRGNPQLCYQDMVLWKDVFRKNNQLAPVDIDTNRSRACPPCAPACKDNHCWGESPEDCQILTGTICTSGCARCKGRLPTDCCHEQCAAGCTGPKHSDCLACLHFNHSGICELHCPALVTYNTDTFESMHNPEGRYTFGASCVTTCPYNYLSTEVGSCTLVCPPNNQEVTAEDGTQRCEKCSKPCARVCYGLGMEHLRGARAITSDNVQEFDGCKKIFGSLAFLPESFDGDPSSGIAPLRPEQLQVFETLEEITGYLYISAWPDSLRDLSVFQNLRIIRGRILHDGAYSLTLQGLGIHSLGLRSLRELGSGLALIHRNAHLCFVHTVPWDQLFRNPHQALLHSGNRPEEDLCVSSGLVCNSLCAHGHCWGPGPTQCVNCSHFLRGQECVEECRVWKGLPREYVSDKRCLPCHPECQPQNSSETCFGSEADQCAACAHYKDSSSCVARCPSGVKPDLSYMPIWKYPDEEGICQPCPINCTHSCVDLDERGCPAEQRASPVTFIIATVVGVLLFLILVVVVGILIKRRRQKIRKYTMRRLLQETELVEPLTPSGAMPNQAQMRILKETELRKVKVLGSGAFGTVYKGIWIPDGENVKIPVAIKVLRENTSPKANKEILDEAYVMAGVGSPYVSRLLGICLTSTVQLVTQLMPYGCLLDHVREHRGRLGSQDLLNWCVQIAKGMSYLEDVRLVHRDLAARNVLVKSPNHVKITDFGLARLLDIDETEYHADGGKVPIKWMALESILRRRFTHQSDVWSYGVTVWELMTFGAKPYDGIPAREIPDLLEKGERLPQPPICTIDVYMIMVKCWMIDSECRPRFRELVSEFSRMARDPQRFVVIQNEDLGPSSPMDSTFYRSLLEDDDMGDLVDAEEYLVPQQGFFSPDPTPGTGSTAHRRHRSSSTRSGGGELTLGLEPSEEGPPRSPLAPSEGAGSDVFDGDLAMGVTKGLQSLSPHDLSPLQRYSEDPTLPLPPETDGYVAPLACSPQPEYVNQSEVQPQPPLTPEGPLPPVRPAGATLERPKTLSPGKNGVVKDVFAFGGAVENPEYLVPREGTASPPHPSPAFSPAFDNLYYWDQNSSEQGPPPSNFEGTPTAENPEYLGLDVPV
T1 sequence (Q62956 26-1308): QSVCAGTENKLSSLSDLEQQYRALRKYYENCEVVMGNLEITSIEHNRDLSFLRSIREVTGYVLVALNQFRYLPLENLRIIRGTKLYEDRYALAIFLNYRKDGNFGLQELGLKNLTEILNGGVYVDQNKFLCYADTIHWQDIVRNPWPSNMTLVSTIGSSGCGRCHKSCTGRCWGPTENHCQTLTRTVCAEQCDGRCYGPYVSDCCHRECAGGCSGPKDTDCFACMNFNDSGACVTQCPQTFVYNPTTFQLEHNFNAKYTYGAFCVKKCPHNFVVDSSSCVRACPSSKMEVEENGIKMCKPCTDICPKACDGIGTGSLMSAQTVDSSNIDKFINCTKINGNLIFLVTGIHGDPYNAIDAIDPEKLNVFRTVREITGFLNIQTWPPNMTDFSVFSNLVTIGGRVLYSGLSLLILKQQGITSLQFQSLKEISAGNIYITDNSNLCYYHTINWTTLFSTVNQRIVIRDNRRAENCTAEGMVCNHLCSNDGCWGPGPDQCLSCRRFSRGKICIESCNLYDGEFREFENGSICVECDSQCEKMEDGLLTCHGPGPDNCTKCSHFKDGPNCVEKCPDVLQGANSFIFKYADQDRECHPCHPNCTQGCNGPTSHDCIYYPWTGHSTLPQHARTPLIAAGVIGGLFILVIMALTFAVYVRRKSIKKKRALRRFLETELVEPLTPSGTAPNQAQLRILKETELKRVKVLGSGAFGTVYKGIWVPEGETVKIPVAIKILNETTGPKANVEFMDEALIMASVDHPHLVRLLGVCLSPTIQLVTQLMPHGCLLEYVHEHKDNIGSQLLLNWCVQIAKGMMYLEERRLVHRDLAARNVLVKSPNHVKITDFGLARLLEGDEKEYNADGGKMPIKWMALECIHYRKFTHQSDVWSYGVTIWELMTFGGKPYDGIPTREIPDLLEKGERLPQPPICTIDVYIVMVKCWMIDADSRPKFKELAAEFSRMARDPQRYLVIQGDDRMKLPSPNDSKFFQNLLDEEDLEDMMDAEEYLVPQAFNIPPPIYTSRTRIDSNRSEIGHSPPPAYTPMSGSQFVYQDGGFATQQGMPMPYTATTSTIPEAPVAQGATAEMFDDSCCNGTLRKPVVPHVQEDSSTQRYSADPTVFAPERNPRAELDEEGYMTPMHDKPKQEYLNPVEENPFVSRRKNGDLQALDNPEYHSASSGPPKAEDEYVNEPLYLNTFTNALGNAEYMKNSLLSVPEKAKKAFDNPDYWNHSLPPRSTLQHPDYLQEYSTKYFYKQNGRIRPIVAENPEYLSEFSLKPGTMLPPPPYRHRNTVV
T1 sequence (P06494 23-1257 partner): as the sequence (P06494 23-1257 partner) above

Row | Molecule | EC50 (ErbB4) | Selectivity SC/CM (ErbB4) | CM % Agonism AVG (ErbB4) | Schwann cells (SC) (ErbB3) Avg EC50 (M) (ErbB3)
1 | Wild-type as control: wild-type neuregulin sequence used as control in the Akt assays; construct not specified (wild-type fragment: SEQ ID NO: 112) (protein, chains of the parent or of the whole protein) SHLVKCAEKEKTFCVNGGECFMVKDLSNPSRYLCKCPNEFTGDRCQNYVMASFYKAEELYQ | 0.15 nM and 0.154 nM and 0.28 nM and 0.253 nM | – | – | –
2 | :huNRG1(S177-F229)(NRGE1C)::2X(G4A)G4::huFcSEFL2v131(+): Fc fusion of NRG1 variant SEQ ID NO:117 (protein, huNRG1(S177-F229)(NRGE1C) ::2X(G4A)G4::huFcSEFL2v131(+)) SHLVKCGEKHKSFCVNGGECFMIEGPSNPSRYLCKCPNEFTGDRCQEDFMASFGGGGAGGGGAGGGGDKTHTCPPCPAPELLGGPSVFLFPPKPKDTLMISRTPEVTCVVVDVSHEDPEVKFNWYVDGVEVHNAKTKPCEEQYGSTYRCVSVLTVLHQDWLNGKEYKCKVSNKALPAPIEKTISKAKGQPREPQVYTLPPSREKMTKNQVSLTCLVKGFYPSDIAVEWESNGQPENNYKTTPPVLKSDGSFFLYSKLTVDKSRWQQGNVFSCSVMHEALHNHYTQKSLSLSPGKDKTHTCPPCPAPELLGGPSVFLFPPKPKDTLMISRTPEVTCVVVDVSHEDPEVKFNWYVDGVEVHNAKTKPCEEQYGSTYRCVSVLTVLHQDWLNGKEYKCKVSNKALPAPIEKTISKAKGQPREPQVYTLPPSREEMTENQVSLTCLVEGFYPSDIAVEWESNGQPENNYETTPPVLDSDGSFFLYSDLTVDKSRWQQGNVFSCSVMHEALHNHYTQKSLSLSPGK | 3.4 nM | >10000 | 91.6% | inactive
3 | :huNRG1(S177-F229)(NRGE1D)::2X(G4A)G4::huFcSEFL2v131(+): Fc fusion of NRG1 variant SEQ ID NO:126 (protein, huNRG1(S177-F229)(NRGE1D) ::2X(G4A)G4::huFcSEFL2v131(+)) SHLVKCGESHKSFCVNGGECYMVEGSSIPSRYLCKCPNEFTGDRCQEDFMASFGGGGAGGGGAGGGGDKTHTCPPCPAPELLGGPSVFLFPPKPKDTLMISRTPEVTCVVVDVSHEDPEVKFNWYVDGVEVHNAKTKPCEEQYGSTYRCVSVLTVLHQDWLNGKEYKCKVSNKALPAPIEKTISKAKGQPREPQVYTLPPSREKMTKNQVSLTCLVKGFYPSDIAVEWESNGQPENNYKTTPPVLKSDGSFFLYSKLTVDKSRWQQGNVFSCSVMHEALHNHYTQKSLSLSPGKDKTHTCPPCPAPELLGGPSVFLFPPKPKDTLMISRTPEVTCVVVDVSHEDPEVKFNWYVDGVEVHNAKTKPCEEQYGSTYRCVSVLTVLHQDWLNGKEYKCKVSNKALPAPIEKTISKAKGQPREPQVYTLPPSREEMTENQVSLTCLVEGFYPSDIAVEWESNGQPENNYETTPPVLDSDGSFFLYSDLTVDKSRWQQGNVFSCSVMHEALHNHYTQKSLSLSPGK | 2 nM | >10000 | 87.1% | inactive
4 | :huNRG1(S177-F229)(NRGE1C)::2X(G4E)G4::huFcSEFL2v131(+): Fc fusion of NRG1 variant SEQ ID NO:117 (protein, huNRG1(S177-F229)(NRGE1C) ::2X(G4E)G4::huFcSEFL2v131(+)) SHLVKCGEKHKSFCVNGGECFMIEGPSNPSRYLCKCPNEFTGDRCQEDFMASFGGGGEGGGGEGGGGDKTHTCPPCPAPELLGGPSVFLFPPKPKDTLMISRTPEVTCVVVDVSHEDPEVKFNWYVDGVEVHNAKTKPCEEQYGSTYRCVSVLTVLHQDWLNGKEYKCKVSNKALPAPIEKTISKAKGQPREPQVYTLPPSREKMTKNQVSLTCLVKGFYPSDIAVEWESNGQPENNYKTTPPVLKSDGSFFLYSKLTVDKSRWQQGNVFSCSVMHEALHNHYTQKSLSLSPGKDKTHTCPPCPAPELLGGPSVFLFPPKPKDTLMISRTPEVTCVVVDVSHEDPEVKFNWYVDGVEVHNAKTKPCEEQYGSTYRCVSVLTVLHQDWLNGKEYKCKVSNKALPAPIEKTISKAKGQPREPQVYTLPPSREEMTENQVSLTCLVEGFYPSDIAVEWESNGQPENNYETTPPVLDSDGSFFLYSDLTVDKSRWQQGNVFSCSVMHEALHNHYTQKSLSLSPGK | 2.9 nM | >10000 | 94% | inactive
5 | :huFcSEFL2(desK)vl31(+):G4SG4:huNRG1(S177-Q237)(NRGE1C): N-terminal Fc fusion of NRG1 variant SEQ ID NO:124 (protein, huFcSEFL2(desK)v131(+)G4SG4huNRG1(S177-Q237) (NRGE1C)) DKTHTCPPCPAPELLGGPSVFLFPPKPKDTLMISRTPEVTCVVVDVSHEDPEVKFNWYVDGVEVHNAKTKPCEEQYGSTYRCVSVLTVLHQDWLNGKEYKCKVSNKALPAPIEKTISKAKGQPREPQVYTLPPSREKMTKNQVSLTCLVKGFYPSDIAVEWESNGQPENNYKTTPPVLKSDGSFFLYSKLTVDKSRWQQGNVFSCSVMHEALHNHYTQKSLSLSPGGGGGSGGGGSHLVKCGEKHKSFCVNGGECFMIEGPSNPSRYLCKCPNEFTGDRCQEDFMASFYKAEELYQDKTHTCPPCPAPELLGGPSVFLFPPKPKDTLMISRTPEVTCVVVDVSHEDPEVKFNWYVDGVEVHNAKTKPCEEQYGSTYRCVSVLTVLHQDWLNGKEYKCKVSNKALPAPIEKTISKAKGQPREPQVYTLPPSREEMTENQVSLTCLVEGFYPSDIAVEWESNGQPENNYETTPPVLDSDGSFFLYSDLTVDKSRWQQGNVFSCSVMHEALHNHYTQKSLSLSPGK | 0.3 nM | >10000 | 85.4% | inactive
6 | :huFcSEFL2(desK)vl31(+):G4SG4:huNRG1(S177-Q237)(NRGE1D): N-terminal Fc fusion of NRG1 variant SEQ ID NO:131 (protein, huFcSEFL2(desK)v131(+)G4SG4huNRG1(S177-Q237) (NRGE1D)) DKTHTCPPCPAPELLGGPSVFLFPPKPKDTLMISRTPEVTCVVVDVSHEDPEVKFNWYVDGVEVHNAKTKPCEEQYGSTYRCVSVLTVLHQDWLNGKEYKCKVSNKALPAPIEKTISKAKGQPREPQVYTLPPSREKMTKNQVSLTCLVKGFYPSDIAVEWESNGQPENNYKTTPPVLKSDGSFFLYSKLTVDKSRWQQGNVFSCSVMHEALHNHYTQKSLSLSPGGGGGSGGGGSHLVKCGESHKSFCVNGGECYMVEGSSIPSRYLCKCPNEFTGDRCQEDFMASFYKAEELYQDKTHTCPPCPAPELLGGPSVFLFPPKPKDTLMISRTPEVTCVVVDVSHEDPEVKFNWYVDGVEVHNAKTKPCEEQYGSTYRCVSVLTVLHQDWLNGKEYKCKVSNKALPAPIEKTISKAKGQPREPQVYTLPPSREEMTENQVSLTCLVEGFYPSDIAVEWESNGQPENNYETTPPVLDSDGSFFLYSDLTVDKSRWQQGNVFSCSVMHEALHNHYTQKSLSLSPGK | 0.23 nM | >10000 | 88.7% | inactive

— patent US12692294B2, “Engineered NRG-1 variants with improved selectivity toward ErbB4 but not against ErbB3” (Amgen Inc., priority 2021, dated 2026)
